Source: publication PMC8178401

Columns and labels:
[1] = target: MsSepF_(core) (C-terminal FtsZ-binding core of Methanobrevibacter smithii SepF, residues 54-149) (Methanobrevibacter smithii); test: not stated; MsSepFcore in solution (Supplementary Fig. 6); method not given
[2] = target: MsSepF_(core) (C-terminal FtsZ-binding core of Methanobrevibacter smithii SepF, residues 54-149) (Methanobrevibacter smithii); test: SPR; Biacore T200, 25 °C, 150 mmol/L NaCl, 25 mmol/L Hepes pH 8; MsSepFcore amine-coupled on CM5 (3200 and 5000 RU), FtsZCTD peptide flowed over; steady-state fit; apparent Kd

Chain of MsSepF_(core) (C-terminal FtsZ-binding core of Methanobrevibacter smithii SepF, residues 54-149) (Methanobrevibacter smithii) (main, as listed by the source): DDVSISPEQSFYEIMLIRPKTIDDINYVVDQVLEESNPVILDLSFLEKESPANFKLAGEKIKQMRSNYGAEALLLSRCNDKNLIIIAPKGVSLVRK

Row | Molecule | stoichiometry N [1] | Kd [2]
1 | MsSepF_(core) (C-terminal FtsZ-binding core of Methanobrevibacter smithii SepF, residues 54-149) (domain or fragment) | 2 | –
2 | NEDQLDDFIDGIF [FtsZCTD peptide (C-terminal domain of Methanobrevibacter smithii FtsZ)] | – | 84 µM
